Reference: US20220143024A1, “METHODS OF USING IMIPRIDONES” (Board of Regents, The University of Texas System, priority 2019, published 2022)

Tests used:
Assay in all cases: BioID-MS +ONC201
ABAT (human) = ABAT (human) (UniProt P80404)
ACADSB (human) = ACADSB (human) (UniProt P45954)
ACN9 (human) = ACN9 (human) (UniProt Q9NRP4)
ADCK3 (human) = ADCK3 (human) (UniProt Q8NI60)
AIFM1 (human) = AIFM1 (human) (UniProt O95831)
ALDH6A1 (human) = ALDH6A1 (human) (UniProt Q02252)
BCKDHB (human) = BCKDHB (human) (UniProt P21953)
BCS1L (human) = BCS1L (human) (UniProt Q9Y276)
C7orf55 (human) = C7orf55 (human) (UniProt Q96HJ9)
CLYBL (human) = CLYBL (human) (UniProt Q8N0X4)
COQ8A (human) = COQ8A (human) (UniProt Q8NI60)
DHTKD1 (human) = DHTKD1 (human) (UniProt Q96HY7)
ERAL1 (human) = ERAL1 (human) (UniProt O75616)
FASTKD5 (human) = FASTKD5 (human) (UniProt Q7L8L6)
GATC (human) = GATC (human) (UniProt O43716)
GBAS (human) = GBAS (human) (UniProt O75323)
GPT2 (human) = GPT2 (human) (UniProt Q8TD30)
HSD17B10 (human) = HSD17B10 (human) (UniProt Q99714)
IARS2 (human) = IARS2 (human) (UniProt Q9NSE4)
LYRM7 (human) = LYRM7 (human) (UniProt Q5U5X0)
MDH2 (human) = MDH2 (human) (UniProt P40926)
MPST (human) = MPST (human) (UniProt P25325)
MRPL12 (human) = MRPL12 (human) (UniProt P52815)
MRPL21 (human) = MRPL21 (human) (UniProt Q7Z2W9)
MRPL44 (human) = MRPL44 (human) (UniProt Q9H9J2)
MRPL46 (human) = MRPL46 (human) (UniProt Q9H2W6)
MRPL55 (human) = MRPL55 (human) (UniProt Q7Z7F7)
MRPS11 (human) = MRPS11 (human) (UniProt P82912)
MRPS17 (human) = MRPS17 (human) (UniProt Q9Y2R5)
MRPS28 (human) = MRPS28 (human) (UniProt Q9Y2Q9)
MRPS36 (human) = MRPS36 (human) (UniProt P82909)
NADK2 (human) = NADK2 (human) (UniProt Q4G0N4)
NARS2 (human) = NARS2 (human) (UniProt Q96I59)
NDUFA12 (human) = NDUFA12 (human) (UniProt Q9UI09)
NDUFAF4 (human) = NDUFAF4 (human) (UniProt Q9P032)
NDUFS8 (human) = NDUFS8 (human) (UniProt O00217)
NDUFV3 (human) = NDUFV3 (human) (UniProt P56181)
NFUl (human) = NFUl (human) (UniProt Q9UMS0)
OGDH (human) = OGDH (human) (UniProt Q02218)
PCK2 (human) = PCK2 (human) (UniProt Q16822)
PDIA3 (human) = PDIA3 (human) (UniProt P30101)
PIN1 (human) = PIN1 (human) (UniProt Q13526)
PMPCA (human) = PMPCA (human) (UniProt Q10713)
POLRMT (human) = POLRMT (human) (UniProt O00411)
PPIF (human) = PPIF (human) (UniProt P30405)
PTPMT1 (human) = PTPMT1 (human) (UniProt Q8WUK0)
SDHA (human) = SDHA (human) (UniProt P31040)
SLIRP (human) = SLIRP (human) (UniProt Q9GZT3)
T1MM44 (human) = T1MM44 (human) (UniProt O43615)
TAC01 (human) = TAC01 (human) (UniProt Q9BSH4)
ZADH2 (human) = ZADH2 (human) (UniProt Q8N4Q0)

NARS2 (human), sequence (Q96I59 15-477 limits assumed): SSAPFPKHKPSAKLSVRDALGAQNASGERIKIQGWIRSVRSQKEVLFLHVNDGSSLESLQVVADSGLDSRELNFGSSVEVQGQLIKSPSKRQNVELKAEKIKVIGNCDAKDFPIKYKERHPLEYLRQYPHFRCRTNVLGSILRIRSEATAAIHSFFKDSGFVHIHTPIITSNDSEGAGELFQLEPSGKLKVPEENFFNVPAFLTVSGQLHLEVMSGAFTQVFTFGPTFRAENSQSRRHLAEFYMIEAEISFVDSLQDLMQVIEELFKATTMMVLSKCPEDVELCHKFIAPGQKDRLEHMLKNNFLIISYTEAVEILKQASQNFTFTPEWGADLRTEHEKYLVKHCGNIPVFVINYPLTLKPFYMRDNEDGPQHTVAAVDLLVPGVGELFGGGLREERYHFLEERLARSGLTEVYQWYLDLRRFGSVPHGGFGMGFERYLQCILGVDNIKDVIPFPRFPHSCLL
OGDH (human), sequence (Q02218 41-1023 limits assumed): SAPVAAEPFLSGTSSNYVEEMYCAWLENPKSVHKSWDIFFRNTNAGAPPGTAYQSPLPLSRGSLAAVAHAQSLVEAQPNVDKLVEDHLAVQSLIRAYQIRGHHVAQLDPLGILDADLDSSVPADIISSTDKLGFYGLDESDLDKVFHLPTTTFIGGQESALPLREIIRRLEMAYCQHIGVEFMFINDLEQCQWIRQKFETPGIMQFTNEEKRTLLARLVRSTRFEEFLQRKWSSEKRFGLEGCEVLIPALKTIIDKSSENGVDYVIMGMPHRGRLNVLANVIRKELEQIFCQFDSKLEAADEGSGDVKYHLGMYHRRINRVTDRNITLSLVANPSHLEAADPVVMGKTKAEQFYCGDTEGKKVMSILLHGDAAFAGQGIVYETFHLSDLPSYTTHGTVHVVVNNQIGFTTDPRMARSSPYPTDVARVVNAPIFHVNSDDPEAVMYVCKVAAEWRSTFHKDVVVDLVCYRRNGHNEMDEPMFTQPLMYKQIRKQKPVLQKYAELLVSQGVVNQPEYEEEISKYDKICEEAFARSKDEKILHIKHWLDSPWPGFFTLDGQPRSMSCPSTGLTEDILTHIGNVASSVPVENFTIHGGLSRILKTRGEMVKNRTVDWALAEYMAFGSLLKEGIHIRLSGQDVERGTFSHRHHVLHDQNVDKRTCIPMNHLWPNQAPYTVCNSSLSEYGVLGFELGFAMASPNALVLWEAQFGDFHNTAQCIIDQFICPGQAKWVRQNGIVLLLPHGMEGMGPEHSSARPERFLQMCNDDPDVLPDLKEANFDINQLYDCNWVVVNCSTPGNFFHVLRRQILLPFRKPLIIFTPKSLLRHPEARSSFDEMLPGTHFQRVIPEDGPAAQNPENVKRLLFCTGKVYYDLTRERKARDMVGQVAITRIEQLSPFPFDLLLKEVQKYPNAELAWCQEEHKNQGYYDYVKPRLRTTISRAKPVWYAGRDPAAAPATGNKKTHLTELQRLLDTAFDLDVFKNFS
ACN9 (human), sequence (Q9NRP4 31-125 limits assumed): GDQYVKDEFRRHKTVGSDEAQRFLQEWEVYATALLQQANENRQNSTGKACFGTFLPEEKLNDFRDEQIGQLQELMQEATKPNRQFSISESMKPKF
MDH2 (human), sequence (P40926 25-338 limits assumed): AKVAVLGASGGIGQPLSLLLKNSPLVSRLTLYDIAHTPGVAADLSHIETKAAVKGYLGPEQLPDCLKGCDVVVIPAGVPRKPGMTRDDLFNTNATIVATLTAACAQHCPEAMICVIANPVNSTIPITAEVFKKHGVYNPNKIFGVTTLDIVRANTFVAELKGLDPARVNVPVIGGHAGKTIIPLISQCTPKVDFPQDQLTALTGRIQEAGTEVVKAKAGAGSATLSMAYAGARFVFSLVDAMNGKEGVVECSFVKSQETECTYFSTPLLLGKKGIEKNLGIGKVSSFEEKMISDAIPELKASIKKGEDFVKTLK
AIFM1 (human), sequence (O95831 55-613 limits assumed): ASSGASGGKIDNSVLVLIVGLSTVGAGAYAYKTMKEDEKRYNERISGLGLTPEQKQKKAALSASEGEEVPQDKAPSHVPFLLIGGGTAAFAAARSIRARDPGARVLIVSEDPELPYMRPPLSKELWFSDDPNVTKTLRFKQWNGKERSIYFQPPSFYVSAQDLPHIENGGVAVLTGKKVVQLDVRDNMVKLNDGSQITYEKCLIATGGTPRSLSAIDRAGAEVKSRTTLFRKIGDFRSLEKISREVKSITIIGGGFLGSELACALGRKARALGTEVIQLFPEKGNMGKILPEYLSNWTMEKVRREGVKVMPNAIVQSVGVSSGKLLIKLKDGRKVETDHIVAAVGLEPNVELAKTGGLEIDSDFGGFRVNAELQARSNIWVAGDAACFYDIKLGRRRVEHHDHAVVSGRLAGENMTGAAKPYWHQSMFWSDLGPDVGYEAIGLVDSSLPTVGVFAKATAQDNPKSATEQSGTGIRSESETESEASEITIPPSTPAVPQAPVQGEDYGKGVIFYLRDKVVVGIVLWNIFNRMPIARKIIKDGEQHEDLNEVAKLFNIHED
BCKDHB (human), sequence (P21953 51-392 limits assumed): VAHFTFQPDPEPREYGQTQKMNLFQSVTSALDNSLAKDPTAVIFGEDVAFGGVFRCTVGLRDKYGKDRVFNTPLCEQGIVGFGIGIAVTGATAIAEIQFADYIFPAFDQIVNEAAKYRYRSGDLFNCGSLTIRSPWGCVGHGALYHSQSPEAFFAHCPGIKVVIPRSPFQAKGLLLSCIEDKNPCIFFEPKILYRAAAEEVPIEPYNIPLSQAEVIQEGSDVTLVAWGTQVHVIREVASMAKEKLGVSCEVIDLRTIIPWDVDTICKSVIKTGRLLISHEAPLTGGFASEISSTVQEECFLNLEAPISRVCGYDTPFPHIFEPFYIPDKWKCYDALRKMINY
NDUFA12 (human), sequence (Q9UI09 whole entry): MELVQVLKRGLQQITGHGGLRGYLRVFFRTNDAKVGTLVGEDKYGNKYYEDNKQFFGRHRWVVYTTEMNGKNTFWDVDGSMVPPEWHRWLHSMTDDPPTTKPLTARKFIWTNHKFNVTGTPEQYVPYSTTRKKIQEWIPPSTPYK
POLRMT (human), sequence (O00411 42-1230 limits assumed): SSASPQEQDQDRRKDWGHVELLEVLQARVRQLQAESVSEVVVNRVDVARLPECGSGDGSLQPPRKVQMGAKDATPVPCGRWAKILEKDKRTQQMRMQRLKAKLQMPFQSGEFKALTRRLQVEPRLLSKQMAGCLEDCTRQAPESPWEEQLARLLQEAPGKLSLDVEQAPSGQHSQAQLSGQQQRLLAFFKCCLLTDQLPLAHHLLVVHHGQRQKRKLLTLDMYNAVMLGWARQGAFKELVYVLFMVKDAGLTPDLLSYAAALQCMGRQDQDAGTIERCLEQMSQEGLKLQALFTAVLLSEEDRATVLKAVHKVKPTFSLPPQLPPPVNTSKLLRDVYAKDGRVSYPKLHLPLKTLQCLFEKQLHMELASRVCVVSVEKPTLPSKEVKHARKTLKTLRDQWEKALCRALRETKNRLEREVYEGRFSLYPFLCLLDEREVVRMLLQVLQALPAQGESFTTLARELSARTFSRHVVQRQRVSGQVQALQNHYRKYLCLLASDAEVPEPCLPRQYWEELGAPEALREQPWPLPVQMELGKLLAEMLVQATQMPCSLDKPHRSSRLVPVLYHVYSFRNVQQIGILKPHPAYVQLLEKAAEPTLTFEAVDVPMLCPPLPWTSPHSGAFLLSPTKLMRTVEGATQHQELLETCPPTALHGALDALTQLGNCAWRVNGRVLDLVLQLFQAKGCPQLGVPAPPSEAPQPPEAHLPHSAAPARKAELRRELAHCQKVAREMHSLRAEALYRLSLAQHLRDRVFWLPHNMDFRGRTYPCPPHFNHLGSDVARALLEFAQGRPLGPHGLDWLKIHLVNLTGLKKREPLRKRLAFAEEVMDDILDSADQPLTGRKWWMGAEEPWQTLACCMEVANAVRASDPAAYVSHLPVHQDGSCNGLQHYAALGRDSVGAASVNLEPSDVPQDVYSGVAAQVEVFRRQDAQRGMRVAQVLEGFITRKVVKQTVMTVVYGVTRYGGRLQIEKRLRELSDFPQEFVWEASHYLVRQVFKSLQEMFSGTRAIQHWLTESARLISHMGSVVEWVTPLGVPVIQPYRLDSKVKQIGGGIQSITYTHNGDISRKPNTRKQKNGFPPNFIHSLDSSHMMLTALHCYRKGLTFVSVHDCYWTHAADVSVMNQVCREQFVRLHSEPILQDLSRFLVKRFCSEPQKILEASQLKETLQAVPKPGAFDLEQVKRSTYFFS
MPST (human), sequence (P25325 2-297 limits assumed): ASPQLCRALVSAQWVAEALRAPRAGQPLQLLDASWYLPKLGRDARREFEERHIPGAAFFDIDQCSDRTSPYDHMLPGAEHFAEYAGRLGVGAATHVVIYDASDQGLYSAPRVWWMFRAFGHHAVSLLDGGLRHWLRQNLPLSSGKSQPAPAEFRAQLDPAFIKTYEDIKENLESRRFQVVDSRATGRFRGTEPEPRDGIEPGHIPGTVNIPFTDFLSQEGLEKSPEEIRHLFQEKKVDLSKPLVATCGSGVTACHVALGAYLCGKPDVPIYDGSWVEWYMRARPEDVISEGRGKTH
NDUFV3 (human), sequence (P56181 35-108 limits assumed): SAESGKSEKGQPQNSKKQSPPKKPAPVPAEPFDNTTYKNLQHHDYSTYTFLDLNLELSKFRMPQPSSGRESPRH
NADK2 (human), sequence (Q4G0N4 63-442 limits assumed): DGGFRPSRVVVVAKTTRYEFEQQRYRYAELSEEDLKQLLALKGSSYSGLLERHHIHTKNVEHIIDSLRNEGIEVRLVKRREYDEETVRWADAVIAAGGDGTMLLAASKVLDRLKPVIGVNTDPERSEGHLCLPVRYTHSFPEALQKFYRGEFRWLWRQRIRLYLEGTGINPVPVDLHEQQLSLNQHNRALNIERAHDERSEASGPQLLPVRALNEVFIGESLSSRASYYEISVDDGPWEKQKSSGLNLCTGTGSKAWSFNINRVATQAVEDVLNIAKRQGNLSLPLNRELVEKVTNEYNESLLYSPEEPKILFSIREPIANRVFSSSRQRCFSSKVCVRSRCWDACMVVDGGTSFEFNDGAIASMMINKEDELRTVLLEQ
GATC (human), sequence (O43716 58-136 limits assumed): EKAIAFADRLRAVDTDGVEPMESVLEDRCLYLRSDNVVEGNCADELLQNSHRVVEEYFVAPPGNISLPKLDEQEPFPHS

## FlagBirA-ClpP (WT) (from UniProt P06709 1-321; Q16740 57-277) (enzyme)
ABAT (human)
  Log2 Fold change (vs control): -2.58 log2
ACADSB (human)
  Log2 Fold change (vs control): -1.76 log2
ACN9 (human)
  Log2 Fold change (vs control): -5.46 log2
ADCK3 (human)
  Log2 Fold change (vs control): -1.91 log2
AIFM1 (human)
  Log2 Fold change (vs control): -1.58 log2
ALDH6A1 (human)
  Log2 Fold change (vs control): -3.81 log2
BCKDHB (human)
  Log2 Fold change (vs control): -4.91 log2
BCS1L (human)
  Log2 Fold change (vs control): -0.17 log2
C7orf55 (human)
  Log2 Fold change (vs control): -1.18 log2
CLYBL (human)
  Log2 Fold change (vs control): -1.63 log2
COQ8A (human)
  Log2 Fold change (vs control): -4.74 log2
DHTKD1 (human)
  Log2 Fold change (vs control): -5.25 log2
ERAL1 (human)
  Log2 Fold change (vs control): -6.19 log2
FASTKD5 (human)
  Log2 Fold change (vs control): -4.91 log2
GATC (human)
  Log2 Fold change (vs control): -5.98 log2
GBAS (human)
  Log2 Fold change (vs control): -2.79 log2
GPT2 (human)
  Log2 Fold change (vs control): -3.7 log2
HSD17B10 (human)
  Log2 Fold change (vs control): 0.01 log2
IARS2 (human)
  Log2 Fold change (vs control): -2.38 log2
LYRM7 (human)
  Log2 Fold change (vs control): -1.38 log2
MDH2 (human)
  Log2 Fold change (vs control): -0.24 log2
MPST (human)
  Log2 Fold change (vs control): -4.46 log2
MRPL12 (human)
  Log2 Fold change (vs control): -3.32 log2
MRPL21 (human)
  Log2 Fold change (vs control): -4.52 log2
MRPL44 (human)
  Log2 Fold change (vs control): -5.04 log2
MRPL46 (human)
  Log2 Fold change (vs control): -6.09 log2
MRPL55 (human)
  Log2 Fold change (vs control): -5.25 log2
MRPS11 (human)
  Log2 Fold change (vs control): -4.25 log2
MRPS17 (human)
  Log2 Fold change (vs control): -4.25 log2
MRPS28 (human)
  Log2 Fold change (vs control): -1.24 log2
MRPS36 (human)
  Log2 Fold change (vs control): -2.58 log2
NADK2 (human)
  Log2 Fold change (vs control): -4.24 log2
NARS2 (human)
  Log2 Fold change (vs control): -1.36 log2
NDUFA12 (human)
  Log2 Fold change (vs control): -7.55 log2
NDUFAF4 (human)
  Log2 Fold change (vs control): -1.11 log2
NDUFS8 (human)
  Log2 Fold change (vs control): -2.73 log2
NDUFV3 (human)
  Log2 Fold change (vs control): -8.18 log2
NFUl (human)
  Log2 Fold change (vs control): -4.32 log2
OGDH (human)
  Log2 Fold change (vs control): -3.7 log2
PCK2 (human)
  Log2 Fold change (vs control): -5.32 log2
PDIA3 (human)
  Log2 Fold change (vs control): 0.03 log2
PIN1 (human)
  Log2 Fold change (vs control): -0.11 log2
PMPCA (human)
  Log2 Fold change (vs control): -1.21 log2
POLRMT (human)
  Log2 Fold change (vs control): -2.95 log2
PPIF (human)
  Log2 Fold change (vs control): -1.81 log2
PTPMT1 (human)
  Log2 Fold change (vs control): -0.48 log2
SDHA (human)
  Log2 Fold change (vs control): -0.94 log2
SLIRP (human)
  Log2 Fold change (vs control): -0.25 log2
T1MM44 (human)
  Log2 Fold change (vs control): -0.52 log2
TAC01 (human)
  Log2 Fold change (vs control): -4.82 log2
ZADH2 (human)
  Log2 Fold change (vs control): -3.46 log2
